Data on 23 molecules can be found in patent US20250034271A1 (EUCURE BEIJING BIOPHARMA, published 2025).

Changes are numbered by the printed parent chain. In names and notes the source's numbering stands.

The chains are these.
B1: 7F10-mHvKv-IgG1-N297A (antibody, V domains shown)
VH: EVKLVESGGGLVQPGGSLKLSCATSGFTFSDYYMYWVRQTPEKRLEWVAYISYGGDSTFYPDTVRGRFTISRDNAKNALYLQMSRLKSEDTAVYYCARPAPSAHSYYLDYWGQGTTLTVSS
VL: DIQMTQTTSSLSASLGDRVTISCRASQDISNYLNWYQQKPDGTVKLLIYYTSRLHSGLPSRFSGSGSGTDYSLTISNLEQEDIATYYCQQGKTLPFTFASGTKLEIK
notes: Chimeric; human IgG1 constant regions with N297A mutation (EU numbering) in the Fc region
B2: 7F10-H2K3-IgG4 (antibody, V domains shown)
VH: B1 VH with K3Q, K19R, T40A, E42G, A78S, R85S, S88A, T116L
VL: B1 VL with T7S, L15V, S22T, D41G, T43A, S72T, N77S, E79Q
notes: Humanized
B3: 7F10-H1K2-IgG4 (antibody, V domains shown)
VH: B1 VH with K3Q, K19R, T40A, E42G, A78S, S84N, R85S, K87R, S88A, T116L
VL: DIQMTQSPSSLSASVGDRVTITCRASQDISNYLNWYQQKPGGAVKLLIYYTSRLHSGLPSRFSGSGSGTDYTFTISSLQPEDIATYYCQQGKTLPFTFASGTKLEIK
notes: Humanized
B4: 7F10-H2K4-IgG4 (antibody, V domains shown)
VH: B1 VH with K3Q, K19R, T40A, E42G, A78S, R85S, S88A, T116L
VL: B3 VL with P8T, G41D, A43T, F73L, P80Q
notes: Humanized
B5: 7F10-H2K1-IgG4 (antibody, V domains shown)
VH: B1 VH with K3Q, K19R, T40A, E42G, A78S, R85S, S88A, T116L
VL: B3 VL with Y71F
notes: Humanized
B6: 7F10-H1K3-IgG4 (antibody, V domains shown)
VH: B1 VH with K3Q, K19R, T40A, E42G, A78S, S84N, R85S, K87R, S88A, T116L
VL: B3 VL with P8T, F73L, P80Q
notes: Humanized
B7: 7F10-H2K2-IgG4 (antibody, V domains shown)
VH: B1 VH with K3Q, K19R, T40A, E42G, A78S, R85S, S88A, T116L
VL: B3 VL
notes: Humanized
B8: 7F10-H1K1-IgG4 (antibody, V domains shown)
VH: B1 VH with K3Q, K19R, T40A, E42G, A78S, S84N, R85S, K87R, S88A, T116L
VL: B3 VL with Y71F
notes: Humanized
B9: 7F10-H1K4-IgG4 (antibody, V domains shown)
VH: B1 VH with K3Q, K19R, T40A, E42G, A78S, S84N, R85S, K87R, S88A, T116L
VL: B3 VL with P8T, G41D, A43T, F73L, P80Q
notes: Humanized
B10: 4H6-H2K2-IgG4 (antibody, V domains shown)
VH: EVQLQESGPGLVKPSQTLSLTCTVSGDSVSSGYWNWIRKHPGKKLEWIGFISYSGSTYYTPSLKSRVTISRDTSKNQFSLKLSSVTAADTAVYYCARFRRYDDGVDYWGQGTLVTVSS
VL: DIQMTQSPSAMSASVGDRVTITCRASHEISGYLSWIQQKPGGTIKRLINAASTLASGVPSRFSGSRSGTEFTLTISSLQPEDFADYYCLQYSSYPWTFGGGTKLEIK
notes: Humanized
B11: 4H6-H3K1-IgG4 (antibody, V domains shown)
VH: B10 VH with W47Y, I48M, V67I, Y94F
VL: B10 VL with I36F, T43V, D85T
notes: Humanized
B12: 4H6-H1K2-IgG4 (antibody, V domains shown)
VH: B10 VH with E1Q
VL: B10 VL
notes: Humanized
B13: 4H6-H3K3-IgG4 (antibody, V domains shown)
VH: B10 VH with W47Y, I48M, V67I, Y94F
VL: B10 VL with F71Y
notes: Humanized
B14: 4H6-H2K4-IgG4 (antibody, V domains shown)
VH: B10 VH
VL: B10 VL with I21L, F71Y
notes: Humanized
B15: 4H6-H3K4-IgG4 (antibody, V domains shown)
VH: B10 VH with W47Y, I48M, V67I, Y94F
VL: B10 VL with I21L, F71Y
notes: Humanized
B16: 4H6-H4K3-IgG4 (antibody, V domains shown)
VH: B10 VH with H40F, W47Y, I48M, V67I, Y94F
VL: B10 VL with F71Y
notes: Humanized
B17: 4H6-H2K1-IgG4 (antibody, V domains shown)
VH: B10 VH
VL: B10 VL with I36F, T43V, D85T
notes: Humanized
B18: 4H6-H2K3-IgG4 (antibody, V domains shown)
VH: B10 VH
VL: B10 VL with F71Y
notes: Humanized
B19: 4H6-H1K4-IgG4 (antibody, V domains shown)
VH: B10 VH with E1Q
VL: B10 VL with I21L, F71Y
notes: Humanized
B20: 4H6-H4K1-IgG4 (antibody, V domains shown)
VH: B10 VH with H40F, W47Y, I48M, V67I, Y94F
VL: B10 VL with I36F, T43V, D85T
notes: Humanized
B21: 4H6-H1K3-IgG4 (antibody, V domains shown)
VH: B10 VH with E1Q
VL: B10 VL with F71Y
notes: Humanized
B22: 4H6-H4K4-IgG4 (antibody, V domains shown)
VH: B10 VH with H40F, W47Y, I48M, V67I, Y94F
VL: B10 VL with I21L, F71Y
notes: Humanized
B23: 4H6-H1K1-IgG4 (antibody, V domains shown)
VH: B10 VH with E1Q
VL: B10 VL with I36F, T43V, D85T
notes: Humanized

The target in this assay is T1, Histidine-tagged human CD40 protein (hCD40-His) (human, UniProt P25942 21-193).
T1 construct: not shown: histidine tag
T1 sequence (P25942 21-193 limits assumed): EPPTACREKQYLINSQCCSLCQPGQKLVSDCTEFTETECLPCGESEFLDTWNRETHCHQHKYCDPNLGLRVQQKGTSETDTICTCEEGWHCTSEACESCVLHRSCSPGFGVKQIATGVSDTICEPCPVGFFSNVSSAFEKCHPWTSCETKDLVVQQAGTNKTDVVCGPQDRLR
The assay can be described thus: SPR, Biacore T200; antibody on Protein A chip, hCD40-His injected; 1:1 fit. Here is the method:
The binding affinity of the anti-hCD40 antibodies were measured using surface plasmon resonance (SPR) using Biacore (Biacore, INC, Piscataway N.J.) T200 biosensor equipped with pre-immobilized Protein A sensor chips.
Anti-hCD40 antibodies were collected by transfecting CHO-S cells and then purified. The antibodies (1 μg/mL) were injected into Biacore T200 biosensor at 10 μL/min for about 24-33 seconds to achieve to a desired protein density (about 44-57 response units (RU)). […] Dissociation was monitored for 300 seconds. The chip was regenerated after the last injection of each titration with Glycine (pH 2.0, 30 μL/min for 12 seconds).
In general terms: SPR reads the build-up and loss of mass on a sensor chip optically.
As usually defined, the Kd is the constant that tells how readily two partners part at equilibrium. A higher Kd goes with lower affinity. A word on the koff: it is the rate constant with which the complex falls apart. As usually defined, the kon is the rate constant with which the complex forms. A low value points to slow association. The molecule B1 yielded a Kd of 194 nM, a koff of 0.0292 s⁻¹ and a kon of 150000 M⁻¹ s⁻¹.
For B2 the same measures were 182 nM, 0.0313 s⁻¹ and 172000 M⁻¹ s⁻¹.
The matching figures for B3: 594 nM, 0.0491 s⁻¹ and 82800 M⁻¹ s⁻¹.
The matching figures for B4: 202 nM, 0.038 s⁻¹ and 188000 M⁻¹ s⁻¹.
B5: the dissociation constant (Kd) worked out at 540 nM, the koff was 0.065 s⁻¹ and the kon turned out to be 120000 M⁻¹ s⁻¹.
In turn, B6 registered a Kd of 535 nM, a koff of 0.0391 s⁻¹ and an on-rate (kon) of 73100 M⁻¹ s⁻¹.
The matching figures for B7: 505 nM, 0.0534 s⁻¹ and 106000 M⁻¹ s⁻¹.
The matching figures for B8: 291 nM, 0.0514 s⁻¹ and 177000 M⁻¹ s⁻¹.
For B9 the same measures were 278 nM, 0.0321 s⁻¹ and 115000 M⁻¹ s⁻¹.
Regarding B10, the Kd stood at 138 nM, the off-rate constant (koff) was 0.057 s⁻¹ and the kon is 414000 M⁻¹ s⁻¹.
Take B11: the Kd was 413 nM, the koff amounted to 0.0342 s⁻¹ and the association rate constant (kon) is 82700 M⁻¹ s⁻¹.
In turn, B12 showed a dissociation constant (Kd) of 164 nM, a koff of 0.0632 s⁻¹ and an on-rate constant (kon) of 386000 M⁻¹ s⁻¹.
For B13 the same measures were 91.6 nM, 0.0286 s⁻¹ and 312000 M⁻¹ s⁻¹.
The matching figures for B14: 378 nM, 0.0742 s⁻¹ and 196000 M⁻¹ s⁻¹.
The matching figures for B15: 94.8 nM, 0.0282 s⁻¹ and 298000 M⁻¹ s⁻¹.
The molecule B16 registered a dissociation constant (Kd) of 78.8 nM, a dissociation rate constant (koff) of 0.0257 s⁻¹ and an on-rate constant (kon) of 327000 M⁻¹ s⁻¹.
The matching figures for B17: 447 nM, 0.227 s⁻¹ and 507000 M⁻¹ s⁻¹.
In the case of B18, binding was put at a Kd of 253 nM, the off-rate (koff) is 0.0659 s⁻¹ and the association rate constant (kon) stood at 260000 M⁻¹ s⁻¹.
For B19 the same measures were 465 nM, 0.0695 s⁻¹ and 149000 M⁻¹ s⁻¹.
In turn, B20 gave a dissociation constant (Kd) of 145 nM, a koff of 0.0269 s⁻¹ and an association rate constant (kon) of 185000 M⁻¹ s⁻¹.
As to B21, the Kd was 229 nM, the koff is 0.0554 s⁻¹ and the kon amounted to 242000 M⁻¹ s⁻¹.
On to B22, for which the Kd was 88.9 nM, the koff was 0.0278 s⁻¹ and the kon came out at 312000 M⁻¹ s⁻¹.
For B23 the same measures were 7720 nM, 0.167 s⁻¹ and 21700 M⁻¹ s⁻¹.
